In US11046988B2, “Process for the modification of a glycoprotein using a β-(1,4)-N-acetylgalactosaminyl transferase or a mutant thereof” (Synaffix B.V., priority 2014, dated 2021):
Blank lines part the entries; values can stand above or below the molecule they belong to.

Assay: Coupled glycosyltransferase assay (R&D Systems Glycosyltransferase Activity Kit, malachite green, 620 nm): transfer of F2-GalNAz to GlcNAc
Assay type: biochemical
Design: Data from the determination of the specific activity: unit not given here
Settings: for Data from the determination of the specific activity: GlcNAc 20 mM, UDP-F2-GalNAz 500 μM, 20 min, room temperature, plate read at 620 nm; for specific activity: UDP-F2-GalNAz 500 μM to GlcNAc 20 mM, 5 mM MgCl2 and 5 mM MnCl2, pH 7.5, linear regression; for transferase activity compared with GalT(Y289L): transfer of F2-GalNAz from UDP-F2-GalNAz (18) to GlcNAc, FIG. 7 / FIG. 8
From the text: In brief, the glycosyltransferase kit determines the activity of a particular glycosyltransferase by means of a coupled assay that detects the release of liberated UDP upon transfer of the donor sugar (from the sugar-UDP nucleotide) to an acceptor sugar. In more detail, the UDP that is liberated upon transfer of sugar is hydrolyzed by a particular enzyme (CD39L3/rectonucleoside triphosphate diphosphohydrolase-3, also known as NTPDase-3) thereby generating UMP and one equivalent of phosphate (Pi). The latter phosphate in turn is detected by malachite green, which is also added to the mixture. A green color develops in proportion to the amount of inorganic phosphate released and the absorbance of the color at 620 nm is measured as a direct measure of the activity of the glycosyltransferase. In the present case, transfer of F2-GalNAz from the UDP-substrate to GlcNAc on the protein is accompanied by release of UDP, which is hydrolyzed by CD39L3 and the generated phosphate. Preferably, the derived or wild type β-(1,4)-GalNAcT enzyme used in the process according to the invention has at least 30%, 33%, 50%, 75%, 100%, 150%, 200%, or more preferably at least 300% of the UDP-F2-GalNAz transfer activity as compared to the UDP-F2-GalNAz transfer activity of the β-(1,4)-galactosyltransferase mutant enzyme Bos taurus GalT-Y289L (SEQ ID NO: 1), wherein the transfer activity is assessed using the R&D Systems Glycosyltransferase Activity Kit and applying the conditions as indicated in detail in Example 18 and using equal amounts of the enzyme to be tested and β-(1,4)-galactosyltransferase mutant enzyme Bos taurus GalT-Y289L (SEQ ID NO: 1).
Specific activity of enzymes was determined by a coupled glycosyltransferase procedure as described by Wu et al. in Glycobiology 2010, 21, 723-733, incorporated by reference, and commercially available as a kit from R&D system.
In short, a glycosyltransferase reaction was carried out in 50 μL of reaction buffer (25 mM Tris, 150 mM NaCl, 5 mM MgCl2 and 5 mM MnCl2, pH 7.5) in a 96-well plate at room temperature for 20 min. To determine the kinetic parameters of a glycosyltransferase, multiple reactions with varying amounts of the enzyme were carried out simultaneously (0.01, 0.02, 0.04, 0.06, 0.08, 0.10 and 0.12 μg of enzyme) in the presence of fixed amounts of all other components (GlcNAc: 20 mM, UDP-F2-GalNAz: 500 μM), including the coupling phosphatase 1 (ENTPD3/CD39L3) (2.5 μL of 20 ng/μL solution). A well containing all components except for the enzyme served as a blank control. The reactions were initiated by adding the substrates and phosphatase to the enzyme and terminated by the addition of 30 μL of Malachite reagent A and 100 μL of water to each well. The color was developed by the addition of 30 μL of Malachite reagent B to each well followed by gentle mixing and incubation at room temperature for 20 min. Following color development, the plate was read at 620 nm with a multi-well plate reader. A phosphate standard curve was also performed to determine the conversion factor between the absorbance and the inorganic phosphate contents. Preparation of UDP-F2-GalNAz is described in Example 13.
The specific activity of the GalNAcTs described herein were compared to GalT(Y289L), an enzyme known to transfer UDP-GalNAz as previously disclosed in WO 2007/095506 and WO 2008/029281 (both Invitrogen Corporation).
A graph depicting the conversion (in pmol/min/m) plotted against the amount of enzyme is shown in FIG. 7 (for Table 1) and FIG. 8 (for Table 2). From these plots specific activities were calculated by linear regression. […]

activity for transfer of an azido-GalNAc derivative, times higher than GalT(Y289L) (relative to GalT(Y289L), FIG. 7): 10 times
Molecule: CeGalNAcT: truncated Caenorhabditis elegans β-(1,4)-GalNAcT, amino acids 30-383 of SEQ ID NO: 2 (SEQ ID NO: 6)
Data from the determination of the specific activity (0.01 μg enzyme): 0.031 | Data from the determination of the specific activity (0.02 μg enzyme): 0.066 | Data from the determination of the specific activity (0.04 μg enzyme): 0.14 | Data from the determination of the specific activity (0.06 μg enzyme): 0.162 | Data from the determination of the specific activity (0.08 μg enzyme): 0.265 | Data from the determination of the specific activity (0.1 μg enzyme): 0.301 | Data from the determination of the specific activity (0.12 μg enzyme): 0.348 | specific activity: 426 pmol/min/µg | transferase activity compared with GalT(Y289L): significantly higher

B1: TnGalNAcT: truncated Trichoplusia ni β-(1,4)-GalNAcT, amino acids 33-421 of SEQ ID NO: 4 (SEQ ID NO: 8) (protein)
chain: SPLRTYLYTPLYNATQPTLRNVERLAANWPKKIPSNYIEDSEEYSIKNISLSNHTTRASVVHPPSSITETASKLDKNMTIQDGAFAMISPTPLLITKLMDSIKSYVTTEDGVKKAEAVVTLPLCDSMPPDLGPITLNKTELELEWVEKKFPEVEWGGRYSPPNCTARHRVAIIVPYRDRQQHLAIFLNHMHPFLMKQQIEYGIFIVEQEGNKDFNRAKLMNVGFVESQKLVAEGWQCFVFHDIDLLPLDTRNLYSCPRQPRHMSASIDKLHFKLPYEDIFGGVSAMTLEQFTRVNGFSNKYWGWGGEDDDMSYRLKKINYHIARYKMSIARYAMLDHKKSTPNPKRYQLLSQTSKTFQKDGLSTLEYELVQVVQYHLYTHILVNIDERS
modifications: TnGalNAcT(33-421)
Data from the determination of the specific activity (0.01 μg enzyme): 0 | Data from the determination of the specific activity (0.02 μg enzyme): 0.007 | Data from the determination of the specific activity (0.04 μg enzyme): 0.025 | Data from the determination of the specific activity (0.06 μg enzyme): 0.051 | Data from the determination of the specific activity (0.08 μg enzyme): 0.073 | Data from the determination of the specific activity (0.1 μg enzyme): 0.083 | Data from the determination of the specific activity (0.12 μg enzyme): 0.102 | specific activity: 140 pmol/min/µg | transferase activity compared with GalT(Y289L): significantly higher
